From the supplement of paper PMC7877785 come the findings set out here.

± gives the uncertainty stated by the source.

The nature of the series: self-splicing fitness, log relative to wild type (ln ratio); higher = more splicing; Tetrahymena group I intron in knt gene, E. coli kanamycin selection, DiMSum; sequences stand for … in CUCUCU…GGAGGGAAAAGUUAUCAGGCAUGCACCUGGUAGCUAGUCUUUAAACCAAUAGAUUGCAUCGGUUUAAAAGGCAAGACCGUCAAAUUGCGGGAAAGGGGUCAACAGCCGUUCAGUACCAAGUCUCAGGGGAAACUUUGAGAUGGCCUUGCAAAGGGUAUGGUAAUAAGCUGACGGACAUGGUCCUAACCACGCAGCCAAGUCCUAAGUCAACAGAUCUUCUGUUGAUAUGGAUGCAGUUCACAGACUAAAUGUCGGUCGGGGAAGAUGUAUUCUUCUCAUAAGAUAUAGUCGGACCUCUCCUUAAUGGGAGCUAGCGGAUGAAGUGAUGCAACACUGGAGCCGCUGGGAACUAAUUUGUAUGCGAAAGUAUAUUGAUUAGUUUUGGAGUACUCGUGGUCG
In short, it runs like this: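 Library with all eight P1ex-region intron nucleotides randomised, intron inside the knt kanamycin-resistance gene on pET-22b(+), in E. coli BL21(DE3). Cells grew overnight at 37°C or 30°C on LB agar with or without 25 μg/mL kanamycin (plus 100 μg/mL carbenicillin, 50 μM IPTG, 0.2% rhamnose), in six replicate transformations. Pooled colonies were amplicon-sequenced on Illumina HiSeq 2500. DiMSum fitness is the error-weighted combination of wild-type-normalised replicate fold changes, kanamycin versus none.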

Regarding AGAGAGCAAUAUUACGUUGC, the “self-splicing fitness (ln)” value (30 °C) is -2.89 ± 0.23 and the “self-splicing fitness (ln)” value (37 °C) was -2.89 ± 0.32.

Consider AGAUAGCAAUAUUACGAAAC, for which the “self-splicing fitness (ln)” value (30 °C) was -3.23 ± 0.37. On to AGAUAGCAAUAUUACGAACC, for which the “self-splicing fitness (ln)” value (30 °C) amounted to 0.553 ± 0.29 and the “self-splicing fitness (ln)” value (37 °C) is -0.637 ± 0.27. As to AGAUAGCAAUAUUACGAAGA, the “self-splicing fitness (ln)” value (37 °C) was -1.12 ± 0.39. On to AGAUAGCAAUAUUACGAAGG, for which the “self-splicing fitness (ln)” value (30 °C) was -2.57 ± 0.2. AGAUAGCAAUAUUACGAAGU: the “self-splicing fitness (ln)” value is -3.27 ± 0.14 (30 °C) and -1.83 ± 0.13 (37 °C). For AGAUAGCAAUAUUACGACAA, in that order: -0.741 ± 0.072 and -0.217 ± 0.077. The like results for AGAUAGCAAUAUUACGAGAG were, in that order, -3.7 ± 0.29 and -2.37 ± 0.25. For AGAUAGCAAUAUUACGAGCU, in that order: -0.432 ± 0.13 and -1.02 ± 0.13.

On to AGAUAGCAAUAUUACGAGGU, for which the “self-splicing fitness (ln)” value is -2.94 ± 0.24 (30 °C) and -2.17 ± 0.24 (37 °C). For AGAUAGCAAUAUUACGCAUG, in that order: -1.58 ± 0.14 and -0.884 ± 0.14.

As to AGAUAGCAAUAUUACGCCAC, the “self-splicing fitness (ln)” value (37 °C) is -2.5 ± 0.35. With AGAUAGCAAUAUUACGCCGG, the “self-splicing fitness (ln)” value (30 °C) is -2.14 ± 0.44.

Turning to AGAUAGCAAUAUUACGCGCC, the “self-splicing fitness (ln)” value is -0.504 ± 0.15 (30 °C) and -0.626 ± 0.27 (37 °C).

On to AGAUAGCAAUAUUACGCGGC, for which the “self-splicing fitness (ln)” value was -3.16 ± 0.22 (30 °C) and -3.59 ± 0.42 (37 °C). For AGAUAGCAAUAUUACGCUGG, in that order: -3.38 ± 0.34 and -1.56 ± 0.25. For AGAUAGCAAUAUUACGCUUC, in that order: -2.66 ± 0.42 and -2.27 ± 0.49. On to AGAUAGCAAUAUUACGCUUG, for which the “self-splicing fitness (ln)” value is -2.48 ± 0.12 (30 °C) and -0.783 ± 0.13 (37 °C). AGAUAGCAAUAUUACGGACG: the “self-splicing fitness (ln)” value was -0.861 ± 0.15 (30 °C) and -0.892 ± 0.15 (37 °C). For AGAUAGCAAUAUUACGGAGG, in that order: -4.37 ± 0.26 and -3.22 ± 0.26.

Regarding AGAUAGCAAUAUUACGGGCU, the “self-splicing fitness (ln)” value (30 °C) was -1.34 ± 0.15 and the “self-splicing fitness (ln)” value (37 °C) was -1.38 ± 0.21. The like results for AGAUAGCAAUAUUACGGUCC were, in that order, -1.27 ± 0.14 and -1.03 ± 0.18. Consider AGAUAGCAAUAUUACGUAAA, for which the “self-splicing fitness (ln)” value by setting is: (30 °C) -2.53 ± 0.17; (37 °C) -1.74 ± 0.14. For AGAUAGCAAUAUUACGUAAC, in that order: -3.68 ± 0.35 and -2.01 ± 0.23. As for AGAUAGCAAUAUUACGUAGU, the “self-splicing fitness (ln)” value runs as follows: (30 °C) -2.61 ± 0.11; (37 °C) -2.46 ± 0.15.

Turning to AGAUAGCAAUAUUACGUCAG, the “self-splicing fitness (ln)” value is -2.66 ± 0.15 (30 °C) and -1.01 ± 0.13 (37 °C). For AGAUAGCAAUAUUACGUGAA, in that order: -1.95 ± 0.082 and -1.85 ± 0.12.

Regarding AGCAAGCAAUAUUACGAAAC, the “self-splicing fitness (ln)” value is -4.25 ± 0.25 (30 °C) and -1.03 ± 0.13 (37 °C). For AGCAAGCAAUAUUACGACCG, in that order: -0.988 ± 0.069 and -0.512 ± 0.097. The like results for AGCAAGCAAUAUUACGACUU were, in that order, 0.234 ± 0.098 and -0.294 ± 0.11. For the sequence AGCAAGCAAUAUUACGAUAG, the “self-splicing fitness (ln)” value is -2.98 ± 0.21 (30 °C) and -2.04 ± 0.2 (37 °C). For AGCAAGCAAUAUUACGAUCA, in that order: -0.258 ± 0.084 and -0.0192 ± 0.099. The like results for AGCAAGCAAUAUUACGCAAA were, in that order, -3.11 ± 0.27 and -2.23 ± 0.24. For AGCAAGCAAUAUUACGCAAU, in that order: -2.54 ± 0.15 and -1.41 ± 0.13. In the case of AGCAAGCAAUAUUACGCACG, the “self-splicing fitness (ln)” value runs as follows: (30 °C) -1.44 ± 0.097; (37 °C) -0.144 ± 0.13.

In the case of AGCAAGCAAUAUUACGCAUG, the “self-splicing fitness (ln)” value (30 °C) was -3.32 ± 0.16 and the “self-splicing fitness (ln)” value (37 °C) was -2.74 ± 0.2. The like results for AGCAAGCAAUAUUACGCGAA were, in that order, -2.39 ± 0.1 and -0.85 ± 0.099. On to AGCAAGCAAUAUUACGCGCA, for which the “self-splicing fitness (ln)” value reads like this: (30 °C) -0.742 ± 0.07; (37 °C) 0.548 ± 0.11. On to AGCAAGCAAUAUUACGCGCU, for which, for the setting “37 °C”, the “self-splicing fitness (ln)” value is -2.2 ± 0.32. AGCAAGCAAUAUUACGCGUU: the “self-splicing fitness (ln)” value runs as follows: (30 °C) -2.89 ± 0.17; (37 °C) -2.44 ± 0.19. For AGCAAGCAAUAUUACGGACA, in that order: -1.12 ± 0.14 and -0.766 ± 0.14. For AGCAAGCAAUAUUACGGAGA, the “self-splicing fitness (ln)” value is, setting by setting: (30 °C) -3.25 ± 0.17; (37 °C) -2.35 ± 0.19. The like results for AGCAAGCAAUAUUACGGAGG were, in that order, -4.63 ± 0.46 and -2.28 ± 0.33. The like results for AGCAAGCAAUAUUACGGCAC were, in that order, -0.889 ± 0.08 and -0.371 ± 0.11. The like results for AGCAAGCAAUAUUACGGCCU were, in that order, -0.383 ± 0.094 and 0.167 ± 0.13. As for AGCAAGCAAUAUUACGGGAG, the “self-splicing fitness (ln)” value by setting is: (30 °C) -3.68 ± 0.19; (37 °C) -1.78 ± 0.13. For AGCAAGCAAUAUUACGGGCU, in that order: -2.45 ± 0.22 and -2.09 ± 0.31. Take AGCAAGCAAUAUUACGGGUC: the “self-splicing fitness (ln)” value is, setting by setting: (30 °C) -2.05 ± 0.22; (37 °C) -1.82 ± 0.21. For the sequence AGCAAGCAAUAUUACGUAAA, the “self-splicing fitness (ln)” value by setting is: (30 °C) -2.29 ± 0.14; (37 °C) -0.968 ± 0.15.

For the sequence AGCAAGCAAUAUUACGUACA, the “self-splicing fitness (ln)” value (30 °C) was -1.22 ± 0.074 and the “self-splicing fitness (ln)” value (37 °C) is -0.296 ± 0.085. As to AGCAAGCAAUAUUACGUGCU, the “self-splicing fitness (ln)” value is -2.38 ± 0.14 (30 °C) and -2.07 ± 0.16 (37 °C).

For the sequence AGCAAGCAAUAUUACGUUAU, the “self-splicing fitness (ln)” value is -2.78 ± 0.11 (30 °C) and -1.54 ± 0.12 (37 °C). For the sequence AGCAAGCAAUAUUACGUUCU, the “self-splicing fitness (ln)” value reads like this: (30 °C) -0.601 ± 0.084; (37 °C) -0.279 ± 0.087. The like results for AGCAAGCAAUAUUACGUUUA were, in that order, -2.1 ± 0.13 and -1.96 ± 0.15.

As to AGCCAGCAAUAUUACGAACU, the “self-splicing fitness (ln)” value reads like this: (30 °C) -0.257 ± 0.11; (37 °C) 0.407 ± 0.14. AGCCAGCAAUAUUACGACUC: the “self-splicing fitness (ln)” value by setting is: (30 °C) -4.9 ± 0.46; (37 °C) -2.49 ± 0.27. As for AGCCAGCAAUAUUACGAGUC, the “self-splicing fitness (ln)” value (37 °C) was -1.61 ± 0.21.

As for AGCCAGCAAUAUUACGAUUG, the “self-splicing fitness (ln)” value (30 °C) was -4.59 ± 0.3 and the “self-splicing fitness (ln)” value (37 °C) was -0.923 ± 0.19.

AGCCAGCAAUAUUACGAUUU: the “self-splicing fitness (ln)” value is -2.3 ± 0.1 (30 °C) and -1.24 ± 0.11 (37 °C). For AGCCAGCAAUAUUACGCACG, in that order: -2.34 ± 0.11 and -0.605 ± 0.12. Consider AGCCAGCAAUAUUACGCCAG, for which the “self-splicing fitness (ln)” value reads like this: (30 °C) -3.96 ± 0.27; (37 °C) -2.23 ± 0.16. Take AGCCAGCAAUAUUACGCCGG: where the note is “37 °C”, the “self-splicing fitness (ln)” value is -3.39 ± 0.27.

As for AGCCAGCAAUAUUACGCCUC, the “self-splicing fitness (ln)” value (37 °C) was -0.728 ± 0.44.

As for AGCCAGCAAUAUUACGGAAU, the “self-splicing fitness (ln)” value is -1.76 ± 0.12 (30 °C) and -1.52 ± 0.14 (37 °C). For AGCCAGCAAUAUUACGGAGA, in that order: -2.57 ± 0.16 and -1.34 ± 0.15. As to AGCCAGCAAUAUUACGGCAC, the “self-splicing fitness (ln)” value (30 °C) is -1.26 ± 0.13 and the “self-splicing fitness (ln)” value (37 °C) is -0.402 ± 0.15. On to AGCCAGCAAUAUUACGGCCA, for which the “self-splicing fitness (ln)” value (30 °C) was -0.79 ± 0.089 and the “self-splicing fitness (ln)” value (37 °C) is -0.322 ± 0.11. As for AGCCAGCAAUAUUACGGGUG, the “self-splicing fitness (ln)” value is -2.15 ± 0.075 (30 °C) and -0.713 ± 0.085 (37 °C).

Turning to AGCCAGCAAUAUUACGGUGC, the “self-splicing fitness (ln)” value runs as follows: (30 °C) -2.49 ± 0.12; (37 °C) -2.28 ± 0.17. On to AGCCAGCAAUAUUACGGUUA, for which the “self-splicing fitness (ln)” value by setting is: (30 °C) -0.713 ± 0.13; (37 °C) -0.226 ± 0.11. Turning to AGCCAGCAAUAUUACGUAGG, the “self-splicing fitness (ln)” value was -3.77 ± 0.2 (30 °C) and -3.33 ± 0.24 (37 °C). As for AGCCAGCAAUAUUACGUCAA, the “self-splicing fitness (ln)” value (30 °C) was -3.18 ± 0.22 and the “self-splicing fitness (ln)” value (37 °C) is -2.53 ± 0.21.

In the case of AGCCAGCAAUAUUACGUCAG, the “self-splicing fitness (ln)” value reads like this: (30 °C) -3.58 ± 0.17; (37 °C) -2.77 ± 0.23.

With AGCCAGCAAUAUUACGUCAU, the “self-splicing fitness (ln)” value reads like this: (30 °C) -2.29 ± 0.12; (37 °C) -0.981 ± 0.15. For AGCCAGCAAUAUUACGUCGG, in that order: -3.89 ± 0.3 and -2.97 ± 0.32. On to AGCCAGCAAUAUUACGUGCC, for which the “self-splicing fitness (ln)” value reads like this: (30 °C) -2.96 ± 0.15; (37 °C) -1.98 ± 0.14. AGCGAGCAAUAUUACGAACG: the “self-splicing fitness (ln)” value runs as follows: (30 °C) -2.14 ± 0.29; (37 °C) -1.5 ± 0.2. Take AGCGAGCAAUAUUACGACCA: the “self-splicing fitness (ln)” value (30 °C) is -1.37 ± 0.22 and the “self-splicing fitness (ln)” value (37 °C) was -1.08 ± 0.22.
